The values below come from patent US20170145113A1 (Genentech, published 2017).

Assay [1] has as its target T1, His-tagged human HtrA1 protease domain (human, UniProt Q92743 161-367).
T1 construct: His-tagged protease domain; also called huHtrA1-PD-His; huHtrA1-PD
As to the kind of experiment: BIACORE SPR, single-cycle kinetics; Fab analyte over captured human HtrA1. Background: SPR reads the build-up and loss of mass on a sensor chip optically.

Assay [2] deals with T1, His-tagged human HtrA1 protease domain. Described as above. The source holds these as a separate data set.
Assay [3] has the same target. Description: BIACORE T200 SPR; Fab analyte over huHtrA1-PD-His captured by anti-His antibody. The protocol:
(§1) To determine the binding affinity of selected Fab variants for HtrA1, SPR measurement with a BIACORE™ T200 instrument was performed. Briefly, a series S sensor chip CM5 was activated with 1-EDC and NHS reagents according to the supplier's instructions, and anti-His antibody was coupled to achieve 200-300 response units (RU), then following by blocking un-reacted groups with 1 M ethanolamine. For kinetics measurements, approximately 5 nM of huHtrA1-PD-His was first injected at 10 μl/min flow rate to capture approximately 100 RU at 2 different flow cells (FC), except for FC1 (which served as a reference). Next, 5-fold serial dilutions of Fab in HBS-P buffer (0.01M HEPES pH 7.4, 0.15M NaCl, 0.005% surfactant P20) from low (0.8 nM) to high (50 nM) were injected (flow rate: 30 μl/min). The binding responses on HtrA1 were corrected by subtracting of RU from a blank flow cell. The sensorgram was recorded and subject to reference and buffer subtraction before evaluating by BIACORE® T200 Evaluation Software (version 2.0). Association rates (kₒₙ) and dissociation rates (koff) were calculated using a simple one-to-one Langmuir binding model. The equilibrium dissociation constant (KD) was calculated as the ratio of koff/kₒₙ.

Assay [4] has the same target. As to the kind of experiment: SPR (BIACORE T200), huHtrA1-PD-His captured by anti-His, Fab injected. How it is done:
These combination mutants included both a variant light chain and a variant heavy chain. BIACORE™ kinetic analysis was performed (as described below in Section C) using the combination mutants.
as §1

The target is the same in assay [5]. As to the kind of experiment: BIACORE SPR, Fab analyte, Human HtrA1-PD (N=2).

T1 sequence (Q92743 other isoform, or with tags, fused parts or gaps limits assumed): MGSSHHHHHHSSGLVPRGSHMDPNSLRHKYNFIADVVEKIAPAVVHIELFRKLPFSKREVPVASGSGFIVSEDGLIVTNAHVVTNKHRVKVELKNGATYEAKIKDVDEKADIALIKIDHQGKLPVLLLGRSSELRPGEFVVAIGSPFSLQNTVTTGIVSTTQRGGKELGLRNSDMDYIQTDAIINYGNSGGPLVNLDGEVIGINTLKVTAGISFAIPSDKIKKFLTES

B1: AG (Fab, V domains shown)
VH: EVQLVQSGAEVKKPGASVKVSCKASGYTFTDSEMHWVRQAPGQGLEWIGGVDPETAGAAYNQKFKGRATITRDTSTSTAYLELSSLRSEDTAVYYCTRGYDYDYALDYWGQGTLVTVSS
VL: DIQMTQSPSSLSASVGDRVTITCRASSSVNFIHWYQQKPGKAPKPLISATSNLASGVPSRFSGSGSGTDFTLTISSLQPEDFATYYCQQWSSNPWTFGQGTKVEIK
notes: single member of the group m42; also called h15H6.v2 HC-D55A HC-G56 Fab
On to B1, for which, in assay [1], the Kd (commonly the free concentration of one partner at which half of the binding sites on the other are occupied at equilibrium, for simple one-to-one binding) worked out at 0.76 nM; the koff (commonly a measure of how fast the partners let go of each other) was found to be 0.00035 s⁻¹; the kon (as a rule, a measure of how fast the partners come together) worked out at 460000 M⁻¹ s⁻¹.

B2: DA (Fab, V domains shown)
VH: EVQLVQSGAEVKKPGASVKVSCKASGYTFTDSEMHWVRQAPGQGLEWIGGVDPETDAAAYNQKFKGRATITRDTSTSTAYLELSSLRSEDTAVYYCTRGYDYDYALDYWGQGTLVTVSS
VL: DIQMTQSPSSLSASVGDRVTITCRASSSVNFIHWYQQKPGKAPKPLISATSNLASGVPSRFSGSGSGTDFTLTISSLQPEDFATYYCQQWSSNPWTFGQGTKVEIK
notes: single member of the group m42; also called h15H6.v2 HC-D55 HC-G56A Fab
In assay [1], B2 displayed a Kd of 0.84 nM, a koff of 0.00027 s⁻¹ and a kon of 320000 M⁻¹ s⁻¹.

B3: h15H6.v2 LC-N94A LC-P95 Fab (Fab, V domains shown)
VH: EVQLVQSGAEVKKPGASVKVSCKASGYTFTDSEMHWVRQAPGQGLEWIGGVDPETDGAAYNQKFKGRATITRDTSTSTAYLELSSLRSEDTAVYYCTRGYDYDYALDYWGQGTLVTVSS
VL: DIQMTQSPSSLSASVGDRVTITCRASSSVNFIHWYQQKPGKAPKPLISATSNLASGVPSRFSGSGSGTDFTLTISSLQPEDFATYYCQQWSSAPWTFGQGTKVEIK
notes: Produced as Fab; also called AP
B3: in assay [2], the Kd was 0.31 nM, the koff is 0.00014 s⁻¹ and the kon worked out at 450000 M⁻¹ s⁻¹.

B4: h15H6.v2 HC-D55E HC-G56 Fab (Fab, V domains shown)
VH: EVQLVQSGAEVKKPGASVKVSCKASGYTFTDSEMHWVRQAPGQGLEWIGGVDPETEGAAYNQKFKGRATITRDTSTSTAYLELSSLRSEDTAVYYCTRGYDYDYALDYWGQGTLVTVSS
VL: DIQMTQSPSSLSASVGDRVTITCRASSSVNFIHWYQQKPGKAPKPLISATSNLASGVPSRFSGSGSGTDFTLTISSLQPEDFATYYCQQWSSNPWTFGQGTKVEIK
notes: Produced as Fab; also called EG
In assay [1], B4 gave a Kd of 0.55 nM, a koff of 0.00021 s⁻¹ and a kon of 380000 M⁻¹ s⁻¹.

B5: APEG.LC347.HC23 (Fab, V domains shown)
VH: EVQLVQSGAEVKKPGASVKVSCKASGYKFRDSEMHWVRQAPGQGLEWIGGVDPETEGAAYNQKFKGRATITRDTSTSTAYLELSSLRSEDTAVYYCTRGYDYDYALDYWGQGTLVTVSS
VL: DIQMTQSPSSLSASVGDRVTITCRASSSVEFIHWYQQKPGKAPKPLISATSHLASGVPSRFSGSGSGTDFTLTISSLQPEDFATYYCQQWYSAPWTFGQGTKVEIK
notes: single member of the group m82
For B5, in assay [3], the affinity, expressed as Kd, was 0.163 nM; the koff stood at 6.47e-05 s⁻¹; the kon was 397000 M⁻¹ s⁻¹.

B6: APEG.LC37.HC23 (Fab, V domains shown)
VH: EVQLVQSGAEVKKPGASVKVSCKASGYKFRDSEMHWVRQAPGQGLEWIGGVDPETEGAAYNQKFKGRATITRDTSTSTAYLELSSLRSEDTAVYYCTRGYDYDYALDYWGQGTLVTVSS
VL: DIQMTQSPSSLSASVGDRVTITCRASSSVEFIHWYQQKPGKAPKPLISATSNLASGVPSRFSGSGSGTDFTLTISSLQPEDFATYYCQQWYSAPWTFGQGTKVEIK
notes: as for B5
In assay [3], B6 had a Kd of 0.146 nM, a koff of 6.41e-05 s⁻¹ and a kon of 438000 M⁻¹ s⁻¹.

B7: combination mutant LC3.HC1 Fab (Fab, V domains shown)
VH: EVQLVQSGAEVKKPGASVKVSCKASGYTFKDSEMHWVRQAPGQGLEWIGGVDPETDGAAYNQKFKGRATITRDTSTSTAYLELSSLRSEDTAVYYCTRGYDYDYALDYWGQGTLVTVSS
VL: DIQMTQSPSSLSASVGDRVTITCRASSSVEFIHWYQQKPGKAPKPLISATSNLASGVPSRFSGSGSGTDFTLTISSLQPEDFATYYCQQWSSNPWTFGQGTKVEIK
notes: Fab
For the molecule B7, in assay [4], the Kd amounted to 0.0889 nM, the koff stood at 7.95e-05 s⁻¹ and the kon was found to be 885000 M⁻¹ s⁻¹. Further, in assay [3], binding was characterised by a dissociation constant (Kd) of 0.0898 nM.

B8: APEG.LC347.HC13 (Fab, V domains shown)
VH: EVQLVQSGAEVKKPGASVKVSCKASGYKFKDSEMHWVRQAPGQGLEWIGGVDPETEGAAYNQKFKGRATITRDTSTSTAYLELSSLRSEDTAVYYCTRGYDYDYALDYWGQGTLVTVSS
VL: DIQMTQSPSSLSASVGDRVTITCRASSSVEFIHWYQQKPGKAPKPLISATSHLASGVPSRFSGSGSGTDFTLTISSLQPEDFATYYCQQWYSAPWTFGQGTKVEIK
notes: as for B5
For the molecule B8, in assay [3], the Kd amounted to 0.131 nM, the koff was found to be 4.88e-05 s⁻¹ and the kon was determined as 371000 M⁻¹ s⁻¹.

B9: QP_EG (Fab, V domains shown)
VH: EVQLVQSGAEVKKPGASVKVSCKASGYTFTDSEMHWVRQAPGQGLEWIGGVDPETEGAAYNQKFKGRATITRDTSTSTAYLELSSLRSEDTAVYYCTRGYDYDYALDYWGQGTLVTVSS
VL: DIQMTQSPSSLSASVGDRVTITCRASSSVNFIHWYQQKPGKAPKPLISATSNLASGVPSRFSGSGSGTDFTLTISSLQPEDFATYYCQQWSSQPWTFGQGTKVEIK
notes: also called h15H6.v2 LC-N94Q LC-P95 HC-D55E HC-G56 Fab; copies: 1 + 1
For the molecule B9, in assay [5], the Kd worked out at 0.8 nM, the koff was 0.00029 s⁻¹ and the kon was 380000 M⁻¹ s⁻¹.

B10: EP_EG (Fab, V domains shown)
VH: EVQLVQSGAEVKKPGASVKVSCKASGYTFTDSEMHWVRQAPGQGLEWIGGVDPETEGAAYNQKFKGRATITRDTSTSTAYLELSSLRSEDTAVYYCTRGYDYDYALDYWGQGTLVTVSS
VL: DIQMTQSPSSLSASVGDRVTITCRASSSVNFIHWYQQKPGKAPKPLISATSNLASGVPSRFSGSGSGTDFTLTISSLQPEDFATYYCQQWSSEPWTFGQGTKVEIK
notes: also called h15H6.v2 LC-N94E LC-P95 HC-D55E HC-G56 Fab; copies: 1 + 1
In assay [5], B10 registered a Kd of 0.4 nM, a koff of 0.00018 s⁻¹ and a kon of 450000 M⁻¹ s⁻¹.

B11: h15H6.v2 LC-N94E LC-P95 Fab (Fab, V domains shown)
VH: EVQLVQSGAEVKKPGASVKVSCKASGYTFTDSEMHWVRQAPGQGLEWIGGVDPETDGAAYNQKFKGRATITRDTSTSTAYLELSSLRSEDTAVYYCTRGYDYDYALDYWGQGTLVTVSS
VL: DIQMTQSPSSLSASVGDRVTITCRASSSVNFIHWYQQKPGKAPKPLISATSNLASGVPSRFSGSGSGTDFTLTISSLQPEDFATYYCQQWSSEPWTFGQGTKVEIK
notes: Produced as Fab; also called EP
As to B11, in assay [2], binding was characterised by a dissociation constant (Kd) of 0.33 nM, the koff is 0.00017 s⁻¹ and the on-rate (kon) came to 520000 M⁻¹ s⁻¹.

B12: SP_EG (Fab, V domains shown)
VH: EVQLVQSGAEVKKPGASVKVSCKASGYTFTDSEMHWVRQAPGQGLEWIGGVDPETEGAAYNQKFKGRATITRDTSTSTAYLELSSLRSEDTAVYYCTRGYDYDYALDYWGQGTLVTVSS
VL: DIQMTQSPSSLSASVGDRVTITCRASSSVNFIHWYQQKPGKAPKPLISATSNLASGVPSRFSGSGSGTDFTLTISSLQPEDFATYYCQQWSSSPWTFGQGTKVEIK
notes: also called h15H6.v2 LC-N94S LC-P95 HC-D55E HC-G56 Fab; copies: 1 + 1
In assay [5], B12 gave a Kd of 0.8 nM, a koff of 0.00029 s⁻¹ and a kon of 350000 M⁻¹ s⁻¹.

B13: SG (Fab, V domains shown)
VH: EVQLVQSGAEVKKPGASVKVSCKASGYTFTDSEMHWVRQAPGQGLEWIGGVDPETSGAAYNQKFKGRATITRDTSTSTAYLELSSLRSEDTAVYYCTRGYDYDYALDYWGQGTLVTVSS
VL: DIQMTQSPSSLSASVGDRVTITCRASSSVNFIHWYQQKPGKAPKPLISATSNLASGVPSRFSGSGSGTDFTLTISSLQPEDFATYYCQQWSSNPWTFGQGTKVEIK
notes: single member of the group m42; also called h15H6.v2 HC-D55S HC-G56 Fab
B13: in assay [1], binding was put at a Kd of 0.78 nM, the koff was found to be 0.00032 s⁻¹ and the kon stood at 410000 M⁻¹ s⁻¹.
